Residue numbers refer to the chain shown, from its start.
B1: chimeric rabbit/human Fab ERR2-TOP2 (Fab, V domains shown)
VH: QSLEESGGRLVTPGTPLTLTCTVSGFSLSSYAISWVRQAPGKGLEWIGTIGTRGDTAYANWAKGRFTISKTSTTVTLKMTSPTTEDTATYFCARELVAGGGSDLWGPGTLVTVSS
VL: DVVMTQTPSSVSAVVGGTVTIKCQASQSITSWLSWYQQKPGQPPKLLIYGASHLASGVPSRFKGSGYGTEFTLTISGIQREDAATYYCLGGYLSASYQTAFGGGTKVEIK
B2: chimeric rabbit/human Fab XBR2-433 (Fab, V domains shown)
VH: QSVKESEGGLFKPTDTLTLTCTVSGFSLSTYGVSWVRQAPGNGLEWIGAIGSSGSANYASWAKDRSTITRNTNLNTVTLKMTSLTAADTATYFCARDGYYSSGWGPYFNIWGPGTLVTISS
VL: SFVLTQPASVQVNLGQTVSLTCTADTLSRSYASWYQQKPGQAPVLLIYRDTSRPSGVPDRFSGSSSGNTATLTISGAQAGDEADYYCATSGGSGSNPQYVFGGGTQLTVTG
B3: chimeric rabbit/human Fab ERR2-TOP35 (Fab, V domains shown)
VH: B2 VH with T14M, S29N, I50V, S55A, A56T, D64S, L74E, N109S, I119V
VL: SFVLTQPASVQVNLGQTVSLTCTAETLRSSYASWYQQKPGQAPVLLIYRDTSRPSGVPDRFSGSSSGNTATLTISGAQAGDEADYYCATSDGSGSRYYVFGGGTQLTVTG
B4: chimeric rabbit/human Fab XBR2-TOP72 (Fab, V domains shown)
VH: QEQLEESGGRLVTPGTPLTLTCTVSGIDLSSNAMSWVRQAPGKGLEYVGFINGGGGVHYASWARGRFTISKTSTTVDLKITSPTTEDTATYFCARAGTTYYTSFNLWGPGTLVTISS
VL: QFVLTQSPSASAALGSSAKLTCTLSSAHKTYTIAWYQQQQGEAPRLLMMLRTDGSYTKGTGVPDRFSGSSSGADRYLIISSVQADDAAGYYCGADYSGGYVFGGGTQLTVTG
B5: chimeric rabbit/human Fab ERR2-302 (Fab, V domains shown)
VH: QKQLVESGGGLVKPGGSLTLTCTVSGFSLSSYAIGWVRQAPGNGLEWIGIINSYGSTYYASWAKSRSTITRNTNLNTVTLKMTSLTAADTATYFCARSPYGYVSAWGYHRLDLWGQGTLVTISS
VL: SYELTQLPSVSVSLGQTARITCGGASIGSKVVHWYQQKPGLAPGLLIYDDDERPSGVPDRFSGSNSGDTATLTISGAQAGDEAEYYCQLWDGSDVVFGGGTQLTVTG
B6: chimeric rabbit/human Fab ERR2-308 (Fab, V domains shown)
VH: QEQLEESGGRLVTPGTPLTLTCAVSGFSLSNYAMGWVRQAPGEGLEYIGWISAGGGAYYASWVNGRFTISKTSSTVDLKMTSLTAADTATYFCARGASNGCDLWGPGTLVTVSS
VL: DPMLTQTPSSVSAVVGGTVTIKCQASQSITSWLSWYQQKPGQPPKLLIYGASHLASGVPSRFKGSGYGTEFTLTISGIQREDAATYYCLGGYSNSDIVFGGGTELEIL
B7: chimeric rabbit/human Fab XBR2-327 (Fab, V domains shown)
VH: QEQLKESGGGLFKPTDTLTLTCTVSGFSLSSGAISWVRQAPGNGLEYIGFVNSLGNTYYANWAKSRSAITRNTNENTVTLKMTSLAAADTATYFCAKDYGNWAFDPWGPGTLVTVSS
VL: DPVLTQTPSSVSAAVGGTVAINCQASQSISSYLSWYQQKPGQPPKLLIYGASKLASGVPSRFSGSGSGTEYTLTISGVQREDAATYYCLGGYASASYRTAFGGGTKLEIK
B8: chimeric rabbit/human Fab ERR2-317 (Fab, V domains shown)
VH: QSLEESGGRLVTPGTPLTLTCTASGFSLSSYDMIWVRQAPGKGLEYIGIINAGGNTYYASWAKGRFTISRTSTTVDLKMTSPTTEDTATYFCARGSSWTGDIWGPGTLVTVSS
VL: B7 VL with V11T, A20T, N22K, L46Q, G50A, K53T, S63K, R98Q, L107V
B9: chimeric rabbit/human Fab XBR2-TOP9 (Fab, V domains shown)
VH: QSVEESRGRLVTPGTPLTLICTVSGIDLSSYNIQWVRQAPGKGLEYIGYINTDGSAYYASWAKGRFTISKTSTTVDLKITSPTTEDTATYFCARGGYASGFNLWGPGTLVTISS
VL: DVVMTQTPSSTSAAVGGTVTIKCQASQNIGPWLSWYQQKPGQPPKQLIYAASTLASGVPSRFKGSGSGTDYTLTISGVQREDAATYYCLGWHSWSDDGWAFGAGTNVEIK
B10: chimeric rabbit/human Fab ERR2-316 (Fab, V domains shown)
VH: QKQLVESGGRLVTPGGSLTLTCTVSGFSLSKYGVSWVRQAPGSGLEYIGTIGGSGTSYYASWAKSRSTITRNTNLNTVTLKMTSLTAADTATYFCARYFGWNTGFDIWGPGTLVTISS
VL: DPVMTQTPSSVSEPVGGTVTIKCQASQSISNALAWYQQKPGQPPKRLIYKASTPASGVPSRFKGSRSGTEYTLTISGVQREDAATYYCLGFSVVSNDGWAFGAGTNVEIK
B11: chimeric rabbit/human Fab XBR2-416 (Fab, V domains shown)
VH: QEQLEESGGRLVTPGTPLTLTCTVSGFSLSSYWMSWVRQAPGKGLEWIGTITPGGNTDYATWAKARFTVSKTSTTVDLKITSPTTEDTATYFCARGIGGAADLWGPGTLVTISS
VL: AQVLTQTPSSTSAAVGGTVTIKCQASQSISSSDLSWYQQKPGQPPKLLIYATSYLASGVPSRFKGSGSGTEYTLTISGVQREDAATYYCLGGYPNTSYRSAFGGGTKVEIK

target: hFc-hROR2-T245 (recombinant human ROR2 extracellular domain fused to human Fc) (human) (UniProt Q01974); assay: SPR (Biacore X100), hFc-hROR2 captured by anti-human Fc on CM5, Fab as analyte, 1:1 Langmuir model
Sequence (Q01974 55-394 limits assumed, form in doubt): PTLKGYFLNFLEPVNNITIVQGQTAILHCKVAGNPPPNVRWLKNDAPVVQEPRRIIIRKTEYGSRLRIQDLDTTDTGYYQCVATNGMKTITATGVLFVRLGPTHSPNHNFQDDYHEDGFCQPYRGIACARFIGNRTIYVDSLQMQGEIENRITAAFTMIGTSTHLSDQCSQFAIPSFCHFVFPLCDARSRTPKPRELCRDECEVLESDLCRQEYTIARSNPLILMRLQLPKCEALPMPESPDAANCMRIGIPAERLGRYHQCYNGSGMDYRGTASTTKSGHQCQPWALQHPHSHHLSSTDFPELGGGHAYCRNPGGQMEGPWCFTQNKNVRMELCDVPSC

Row | koff [s⁻¹] | kon [M⁻¹ s⁻¹] | Kd [nM] | Binder
1 | 0.00242 | 29800 | – | B1
2 | 0.108 | 47300 | 2280 | B2
3 | 0.00851 | 197000 | 43.3 | B3
4 | 0.154 | 37000 | 4150 | B4
5 | 0.00544 | 104000 | 52.5 | B5
6 | 0.000286 | 27100 | – | B6
7 | 0.00546 | 95600 | 57.2 | B7
8 | 0.0132 | 83500 | – | B8
9 | 0.0467 | 328000 | – | B9
10 | 0.0178 | 3.34e+06 | – | B10
11 | 0.0173 | 49800 | – | B11

Reference: patent US20190031754A1
